In the RNAGym collection of RNA variant scans (doi:10.7554/elife.80360) one finds self-cleavage data, which are given here for 167 variants.

B1: Hairpin Ribozyme (parent)
chain: GUCCUCUUUCACGUGCGCGUGAAAGAGAGAAGUGAACCAGAGAAACACACGUUGUGGUAUAUUACCUGGUA

Variants of B1 are the subject of this data set. The experiment in a line: self-cleavage, relative activity (ratio to wild type); higher = more cleavage; co-transcriptional.
A35C A59G: the self-cleavage worked out at 0.124.
To A35C A59U belongs 0.105; to U33A C46A, 0.122; to U33A C46G, 0.176.
The result for G34U A47C reads 1.2; that for U33A C38U, 0.0932; that for U33G G34C, 0.337.
To G34U A45C belongs 0.213; to G32U U60C, 0.0374.
Consider G32U U60A, for which the self-cleavage was 0.17.
To U33C A61C belongs 0.074.
Take U33C A61U: the self-cleavage is 0.163.
The result for G34C A45G reads 0.368; that for U33G U60G, 0.0365.
With U33G U60A, the self-cleavage came to 0.0846.
To U33A G34C belongs 0.777.
To U33A G34A belongs 0.0987; to G32U C66G, 0.19; to G34U A43U, 0.0758.
As for G34U A43C, the self-cleavage worked out at 0.0997.
The result for G32C U55C reads 0.0178.
To U33G U58C belongs 0.119; to U33A C65U, 0.238.
U33A U70A: the self-cleavage was determined as 0.0761.
On to G34U U60C, for which the self-cleavage is 1.42.
To G34U U60G belongs 1.34; to G34U G51U, 1.04; to U33C A35U, 0.162.
The result for U33C A45G reads 0.227; that for U33C A36G, 0.0993.
In the case of A35C G57A, the self-cleavage is 0.0715.
To G34C G68C belongs 0.484.
The result for U33G A45G reads 0.0332.
To U33G A45C belongs 0.112; to U33G C65G, 0.122.
Regarding U33G G40U, the self-cleavage amounted to 0.0849.
The result for U33G G40A reads 0.245; that for U33G G40C, 0.0649; that for U33C A41U, 0.159.
The result for U33C U67G reads 0.21; that for G34A A45C, 0.202.
With U33C C37U, the self-cleavage came out at 0.0997.
U33C C37A: the self-cleavage was determined as 0.182.
To G32C U53A belongs 0.185; to G32C U53G, 0.0828; to G34C C37A, 0.898.
To G34C C37G belongs 0.781; to G34C C48G, 0.16; to G34C G69C, 0.564.
To G34A C37U belongs 0.915; to U33A A36U, 0.0862.
Turning to G34U U62G, the self-cleavage turned out to be 0.139.
The result for G32U G34U reads 0.126.
The result for G32C C46U reads 0.109; that for U33A U58A, 0.0766.
To U33A U58G belongs 0.135; to G32C A61G, 0.136.
Take A35C A43C: the self-cleavage was found to be 0.0885.
To U33G A71U belongs 0.067; to U33G A71C, 0.307.
The result for U33G U62A reads 0.126; that for U33G U62G, 0.0966.
On to G32C A39C, for which the self-cleavage is 0.135.
To U33C A39G belongs 0.134; to A35C U55G, 0.27.
In the case of A35C U55A, the self-cleavage is 0.177.
The result for G32C U62C reads 0.2.
The result for G34C G57C reads 0.195.
Consider G32U G68C, for which the self-cleavage worked out at 0.0784.
The result for U33G reads 0.127.
The result for U33C reads 0.161; that for U33A, 0.147; that for G34A G69U, 0.208.
As for G34A U70C, the self-cleavage stood at 1.05.
As for U33C G57U, the self-cleavage was 0.19.
To U33A U55A belongs 0.0922; to U33G U67A, 0.146; to U33G U67C, 0.111.
The result for G32U C50A reads 0.0903; that for U33A U63G, 0.27.
The result for U33A U63A reads 0.0514.
Turning to G32C A71G, the self-cleavage was 0.238.
Consider G32C A71C, for which the self-cleavage worked out at 0.215.
The result for G32C A71U reads 0.157; that for G32C C50U, 0.0935.
G32U C38A: the self-cleavage stood at 0.0741.
The result for U33G A61G reads 0.229.
The result for U33G A61U reads 0.0863.
To G34C A71C belongs 1.76; to U33G C50G, 0.12; to G34U C38G, 0.595.
For the variant G34U C38U, the self-cleavage amounted to 1.42.
Consider U33A A44U, for which the self-cleavage worked out at 0.141.
To U33C U58C belongs 0.169; to G32U C48U, 0.15; to G32U C48A, 0.0918.
To G32U U33G belongs 0.0653; to U33A A43G, 0.169; to G34A A47G, 0.302.
To G34A A47U belongs 0.144.
Turning to G34A A47C, the self-cleavage is 0.451.
The result for U33A G56U reads 0.156.
The result for U33A G56A reads 0.239.
G32C C37G: the self-cleavage was 0.15.
Take U33A U67C: the self-cleavage worked out at 0.104.
For G32C C65G, the self-cleavage is 0.0614.
On to G34A U67G, for which the self-cleavage came to 0.346.
Regarding G34A U67C, the self-cleavage was found to be 0.463.
The result for U33C U70C reads 0.0962.
The result for U33C U70G reads 0.147; that for U33A A64G, 0.164; that for A35C G40U, 0.149.
The result for G34A C48U reads 0.191; that for G34U A64G, 1.17; that for G34U A64C, 0.376.
In the case of G34U U58A, the self-cleavage worked out at 1.5.
Regarding U33C A49G, the self-cleavage came to 0.123.
G34C A39C: the self-cleavage was found to be 0.9.
To G32U G69A belongs 0.115; to G34U A44C, 0.202; to A35C G54A, 0.483.
To A35C G54U belongs 0.56; to U33C U60G, 0.0999.
The result for U33C U60A reads 0.14; that for G34U G69A, 0.93.
Consider G32U G57C, for which the self-cleavage was 0.129.
To G32U G57A belongs 0.139; to A35C, 1.02.
The result for G34C A49G reads 1.42.
With U33A A71G, the self-cleavage was 0.178.
To U33C A47G belongs 0.219; to U33C G68C, 0.0535; to A35C G42A, 0.129.
The result for A35C G42U reads 0.342.
The result for G32U A49U reads 0.0712.
For the variant U33A A61U, the self-cleavage was 0.167.
To U33A A61G belongs 0.0674.
The result for U33C U55A reads 0.0653.
The result for G32C A45C reads 0.145; that for G32C A45G, 0.0948; that for G34A U52A, 1.31.
With G34C A35G, the self-cleavage came to 1.4.
To G34C A35C belongs 1.25; to U33A G42A, 0.168.
To U33A G42U belongs 0.181; to G32U U70G, 0.108.
To G32U U70C belongs 0.138; to A35C C46A, 0.0748.
As for G34C C50U, the self-cleavage worked out at 1.36.
As for G34C C50G, the self-cleavage came out at 1.45.
The result for U33G U70C reads 0.101; that for A35C A44G, 0.0678; that for G34U U67C, 0.976.
The result for G34U U67A reads 0.876; that for U33C C48U, 0.118; that for A35C U58C, 0.798.
Take U33G A59C: the self-cleavage is 0.139.
To U33C C38U belongs 0.0575.
The result for U33G G54A reads 0.111; that for U33G G54C, 0.145; that for U33G G54U, 0.0691.
In the case of G34U C37U, the self-cleavage worked out at 1.59.
The result for U33C U63A reads 0.142.
The result for G34A A41U reads 1.23; that for U33G G57C, 0.108.
The result for U33G G57A reads 0.115; that for G34C U67G, 0.517.
